Measured values taken from patent publication US20190151365A1 (Novartis, published 2019).

Key:
human PD-1 [1] = target: T1, human PD-1 (human, UniProt Q15116 25-167, limits assumed); assay: Biacore (SPR)
T1 construct: also called Programmed Death 1
Excerpt: PDR-001 was characterized in vitro for its affinity and activity on human PD-1. PDR-001 was expressed in a CHO cell line. PDR-001 bound with high affinity to human PD-1. […] In lymphocyte stimulation assays using human blood ex vivo, PDR-001 enhanced interleukin-2 (IL-2) production by approximately 2 fold in response to super antigen stimulation with Staphylococcus enterotoxin B (SEB).

cynomolgus monkey PD-1 = target: T2, cynomolgus monkey PD-1 (cynomolgus monkey, UniProt B0LAJ3 25-170); assay: method not stated for this value (human value by Biacore)
T2 construct: also called cynomolgus PD-1
T2 sequence (B0LAJ3 entry or part of it limits assumed, form in doubt): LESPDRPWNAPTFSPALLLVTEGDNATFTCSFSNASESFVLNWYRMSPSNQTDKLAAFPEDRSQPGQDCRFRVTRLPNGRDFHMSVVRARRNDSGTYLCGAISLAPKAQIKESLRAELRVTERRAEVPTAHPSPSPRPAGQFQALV

human PD-1 [2] = target: T1, human PD-1; assay: cell-based or functional assay

T1 sequence (Q15116 25-167 limits assumed): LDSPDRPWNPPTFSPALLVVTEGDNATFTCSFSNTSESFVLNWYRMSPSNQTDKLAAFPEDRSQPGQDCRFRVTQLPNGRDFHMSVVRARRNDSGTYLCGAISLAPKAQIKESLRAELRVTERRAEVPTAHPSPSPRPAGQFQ

Kd (human PD-1 [1]): 0.83 nM | Kd (cynomolgus monkey PD-1): 0.93 nM
B1: PDR-001 (antibody, IgG4, V domains shown)
VH: EVQLVQSGAEVKKPGESLRISCKGSGYTFTTYWMHWVRQATGQGLEWMGNIYPGTGGSNFDEKFKNRVTITADKSTSTAYMELSSLRSEDTAVYYCTRWTTGTGAYWGQGTTVTVSS
VL: EIVLTQSPATLSLSPGERATLSCKSSQSLLDSGNQKNFLTWYQQKPGQAPRLLIYWASTRESGVPSRFSGSGSGTDFTFTISSLEAEDAATYYCQNDYSYPYTFGQGTKVEIK
notes: also called BAP049-Clone-E (variable regions)
interleukin-2 (IL-2) production in lymphocyte stimulation assays using human blood ex vivo, super antigen stimulation with Staphylococcus enterotoxin B (SEB) (human PD-1 [2]): ~2 fold
